In patent publication US20020061531:

Tests used:
[1] = test system: anti-BPDE-DNA monoclonal antibody 8E11 (Mus musculus); conditions: single (+/-)-anti-BPDE-N2-dG adduct in the SEQ:5 segment; CE/LIF; complex formation with native duplex, 20 ug/mL (printed mg/mL) 8E11
[2] = test system: anti-BPDE-DNA monoclonal antibody 5D11 (Mus musculus); conditions: slight cross-reaction at 20 ug/mL 5D11

Row | Sequence | binding signal (fold lower than denatured) [1] | binding signal (% of total peak area) [2]
1 | CCTTAAGCTTCCTCAACCACTTACCATACTCGAGATTCCCATTATGCATAACCGTCATATGCCGCCTCTGACCTTCCTAGAATTCCATCC (double strand) [TMR-BPDE-90-mer, native duplex] | 6 | –
2 | CCTTAAGCTTCCTCAACCACTTACCATACTCGAGATTCCCATTATGCATAACCGTCATATGCCGCCTCTGACCTTCCTAGAATTCCATCC [TMR control 90-mer (no BPDE), heat-denatured] | – | 2.1
